Data published in article PMC7596997, “The selectivity filter of the mitochondrial protein import machinery” (BMC Biology, 2020).
No end group written: not given here.

Target: T1, cytosolic domain of yeast Tom70 (His-Tom70_(38–617)) (yeast (Saccharomyces cerevisiae), UniProt P07213 38-617)
T1 construct: Tom70, yeast, cytosolic domain, residues 38-617 of the protein of 617 amino acids; plasmid pET10N-Tom70(38–617); also called Tom70cd; isolated Tom70; source: E. coli BL21(DE3), purified (HisTrap, size exclusion; or Ni-NTA beads, batch method); not shown: His tag, N-terminal, kept
T1 sequence (looked up): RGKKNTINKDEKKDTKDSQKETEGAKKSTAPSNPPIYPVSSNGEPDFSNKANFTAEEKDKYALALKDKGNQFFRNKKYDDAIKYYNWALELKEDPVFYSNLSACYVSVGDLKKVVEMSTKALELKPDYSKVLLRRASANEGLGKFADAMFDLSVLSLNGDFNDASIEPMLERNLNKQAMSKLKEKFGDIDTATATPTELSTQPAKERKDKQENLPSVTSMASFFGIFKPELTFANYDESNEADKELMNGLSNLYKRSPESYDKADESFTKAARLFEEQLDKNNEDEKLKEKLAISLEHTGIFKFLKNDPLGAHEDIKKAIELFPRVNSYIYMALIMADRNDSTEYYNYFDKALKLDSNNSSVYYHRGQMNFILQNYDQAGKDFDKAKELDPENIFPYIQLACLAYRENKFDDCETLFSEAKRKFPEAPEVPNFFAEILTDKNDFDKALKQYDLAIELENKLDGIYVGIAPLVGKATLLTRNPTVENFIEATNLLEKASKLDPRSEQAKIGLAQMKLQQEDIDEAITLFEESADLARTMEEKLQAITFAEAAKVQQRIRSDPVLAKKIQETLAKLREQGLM
Assay: pull-down; purified His-Tom70cd (50 pmol per 100 μl) pre-bound to Ni-NTA beads, incubated 40 min at 30 °C with typically 7% (v/v) reticulocyte lysate containing the [35S]-labelled protein; 10 mM MOPS/KOH, 20 mM imidazole, 150 mM KCl, 1% BSA, pH 7.2; eluted with 1 M imidazole, SDS-PAGE, phosphorimager; in some samples the bead-bound Tom70cd was pretreated with NEM and washed before the lysate was added
Conditions: one partner purified

percent of the total radiolabelled protein bound: < 1%
B1: ML3-DHFR (matrix loop of AAC module III, residues 238–277, fused to DHFR) (domain or fragment, Neurospora crassa, UniProt P02723 238-277, looked up)
chain: PLDTIRRRMMMTSGEAVKYKSSFDAASQIVAKEGVKSLFK
modifications: also: fused to DHFR, [35S]-methionine label
notes: ADP/ATP carrier (AAC), Neurospora crassa, residues 238-277; plasmid pYES2-AAC(238–277)-DHFR; also called the construct containing only the matrix loop; AAC(238–277)-DHFR; source: in vitro translated (TNT coupled reticulocyte lysate, with [35S]-methionine), in lysate
